Assay results reported in patent US20260242478A1 (published 2026).
Where no end group is shown, it is not given here.

Legend:
[1] = biological target: T1, Anti-CD28 Fab (SEQ ID NOs: 696, 697); assay: phage binding ELISA, biotinylated Fab on neutravidin plate, anti-M13 HRP detection;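 further: crude clonal phage supernatants added to Fab-coated wells pretreated with CD28 antigen or with blocking buffer only, bound phage measured after washing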
T1 construct: In the phage ELISA the Fab was biotinylated and captured on neutravidin coated plates
Procedure: (§1) After panning, phage infected bacteria were plated out and colonies picked into 96 well blocks. Clonal phage was then amplified and separated from bacterial cells via centrifugation.
(§2) Clonal phage were harvested as crude supematants and screened via standard ELISAs. […] Prior to the addition of clonal phage, wells were incubated with blocking buffer and CD28 antigen or blocking buffer alone. Without washing or aspirating, clonal phage supematants were then added to the wells and incubated for a short time. Wells were then washed followed by detection of bound phage using a horse radish conjugated anti-M13 antibody. Clonal phage of interest were then sent for sequence analysis.

[2] = biological target: T1, Anti-CD28 Fab (SEQ ID NOs: 696, 697); assay: phage binding ELISA on plate-captured Fab, competitor CD28 antigen
Procedure: as §1, §2

[3] = biological target: T2, anti-CD28 scFv (VH - linker 1 - VL) (biotinylated (site not given)); assay: phage ELISA; biotinylated anti-CD28 scFv on neutravidin plate, clonal phage supernatant, anti-M13 HRP
T2 construct: Biotinylated scFv captured on neutravidin coated plates in the panning ELISA

[4] = biological target: T2, anti-CD28 scFv (VH - linker 1 - VL); assay: phage ELISA as above; wells pre-incubated with soluble CD28 as competitor;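 further: crude clonal phage supernatants tested, with bound phage detected by HRP-conjugated anti-M13 antibody, and reference wells given blocking buffer without CD28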
Procedure: Clonal phage were harvested as crude supernatants and screened via standard enzyme linked immunosorbent assays (ELISAs). […] Prior to the addition of clonal phage, wells were incubated with blocking buffer and CD28 soluble protein or blocking buffer alone. Without washing or aspirating, clonal phage supernatants were then added to the wells and incubated for a short time. Wells were then washed followed by detection of bound phage using a horse radish peroxidase conjugated anti-M13 antibody.

[5] = biological target: anti-CD28 Fab; assay: BLI (Octet): biotinylated peptide on streptavidin sensor, anti-CD28 Fab titrated in solution, 1:1 model
anti-CD28 Fab, sequence (VH, as listed by the source, chain 1 of 2): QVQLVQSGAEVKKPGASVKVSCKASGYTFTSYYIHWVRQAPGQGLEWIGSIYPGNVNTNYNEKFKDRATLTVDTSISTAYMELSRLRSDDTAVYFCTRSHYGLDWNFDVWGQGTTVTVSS
anti-CD28 Fab, sequence (VL, as listed by the source, chain 2 of 2): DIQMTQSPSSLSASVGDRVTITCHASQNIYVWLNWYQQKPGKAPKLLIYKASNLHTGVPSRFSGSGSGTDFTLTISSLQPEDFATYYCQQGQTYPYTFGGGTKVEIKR

T2 sequence (scFv, as listed by the source): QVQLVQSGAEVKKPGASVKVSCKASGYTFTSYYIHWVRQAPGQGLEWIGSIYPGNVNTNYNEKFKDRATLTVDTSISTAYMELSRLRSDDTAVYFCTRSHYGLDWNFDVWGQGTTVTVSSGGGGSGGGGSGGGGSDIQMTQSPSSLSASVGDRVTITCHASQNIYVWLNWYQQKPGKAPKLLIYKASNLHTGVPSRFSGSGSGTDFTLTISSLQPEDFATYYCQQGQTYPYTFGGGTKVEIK
T1 sequence (VH, as listed by the source, chain 1 of 2): as the sequence (VH, as listed by the source, chain 1 of 2) above
T1 sequence (VL, as listed by the source, chain 2 of 2): as the sequence (VL, as listed by the source, chain 2 of 2) above

Row | Binder | Anti-CD28 Fab (SEQ ID NOs: 696, 697) signal [1] | Anti-CD28 Fab signal in the presence of CD28 [2] | also measured
1 | ACDTYFAGMINECF (cysteine pairing not given here; also: displayed on phage, fused to pIII, Clonal phage supernatant; not shown: bacteriophage pIII to which the peptide is fused for display) [Phage-458] | 0.92 | 0.1 | 
2 | WICDKSGSIMLCRA (Clonal phage supernatant; not shown: bacteriophage pIII to which the peptide is fused for display) [Phage-470] | 0.91 | 0.06 | 
3 | PDCQTILFKPWCVR (cysteine pairing not given here; also: displayed on phage, fused to pIII, Clonal phage supernatant; not shown: bacteriophage pIII to which the peptide is fused for display) [Phage-457] | 2.09 | 0.06 | 
4 | MDWCPRYLWTVCFS (cysteine pairing not given here; also: displayed on phage as fusion to pIII, linker not given here) [Phage-93] |  |  | CD28 scFv signal [3]: 2.58; CD28 scFv signal in presence of CD28 [4]: 0.372
5 | DCWWMFESYPGRCI (cysteine pairing not given here; also: displayed on phage, fused to pIII, Clonal phage supernatant; not shown: bacteriophage pIII to which the peptide is fused for display) [Phage-465] | 1.65 | 0.07 | 
6 | FMCLPQNPHPLCFK (Clonal phage supernatant; not shown: bacteriophage pIII to which the peptide is fused for display) [Phage-456] | 0.84 | 0.06 | 
7 | WCWDYKLWVPMTCP (cysteine pairing not given here; also: displayed on phage, fused to pIII, Clonal phage supernatant; not shown: bacteriophage pIII to which the peptide is fused for display) [Phage-464] | 2.51 | 0.11 | 
8 | YCAGHSPINIGKCL (cysteine pairing not given here; also: displayed on phage, fused to pIII, Clonal phage supernatant; not shown: bacteriophage pIII to which the peptide is fused for display) [Phage-463] | 1.49 | 0.06 | 
9 | YWSCFQIPFTCFYF (Clonal phage supernatant; not shown: bacteriophage pIII to which the peptide is fused for display) [Phage-454] | 1.44 | 0.27 | 
10 | YCEGHLPEYLAKCL (not fully specified; cysteine pairing not given here; also: biotinylated, site not given here) [Peptide-127] |  |  | Kd [5]: 44.7 nM; t1/2 [5]: 60 s
11 | YCAGHAWQYINKCL (cysteine pairing not given here; also: displayed on phage, fused to pIII, Clonal phage supernatant; not shown: bacteriophage pIII to which the peptide is fused for display) [Phage-466] | 0.64 | 0.07 | 
12 | MDWCPRTLWAYCFN (cysteine pairing not given here; also: displayed on phage as fusion to pIII, linker not given here) [Phage-96] |  |  | CD28 scFv signal [3]: 2.57; CD28 scFv signal in presence of CD28 [4]: 0.584
13 | MDWCPRFLWSECFN (cysteine pairing not given here; also: displayed on phage as fusion to pIII, linker not given here, also called position columns give F at position 7)) [Phage-95] |  |  | CD28 scFv signal [3]: 2.57; CD28 scFv signal in presence of CD28 [4]: 0.227
14 | SCAAGASYAWPYCL (Clonal phage supernatant; not shown: bacteriophage pIII to which the peptide is fused for display) [Phage-471] | 1.49 | 0.05 | 
15 | WCWDYKLWVPTQCP (cysteine pairing not given here; also: displayed on phage, fused to pIII, Clonal phage supernatant; not shown: bacteriophage pIII to which the peptide is fused for display) [Phage-460] | 2.27 | 0.14 | 
16 | YCEGHLPEYIEKCL (cysteine pairing not given here; also: biotinylated, site not given here) [Peptide-120] |  |  | Kd [5]: 926 nM; koff [5]: 0.0239 s⁻¹; kon [5]: 25800 M⁻¹ s⁻¹; t1/2 [5]: 30 s
17 | YCEGHLPEYREKCL (not fully specified; cysteine pairing not given here; also: biotinylated, site not given here) [Peptide-126] |  |  | t1/2 [5]: 36 s
18 | WECLKYTEANACTY (Clonal phage supernatant; not shown: bacteriophage pIII to which the peptide is fused for display) [Phage-455] | 1.55 | 0.07 | 
19 | YWYCSPSIVRCVLV (cysteine pairing not given here; also: displayed on phage, fused to pIII, Clonal phage supernatant; not shown: bacteriophage pIII to which the peptide is fused for display) [Phage-468] | 1.51 | 0.09 | 
20 | MDWCPRDLWSLCFY (cysteine pairing not given here; also: displayed on phage as fusion to pIII, linker not given here) [Phage-94] |  |  | CD28 scFv signal [3]: 2.57; CD28 scFv signal in presence of CD28 [4]: 0.246
21 | GCQYPWAFDAMSCP (cysteine pairing not given here; also: displayed on phage, fused to pIII, Clonal phage supernatant; not shown: bacteriophage pIII to which the peptide is fused for display) [Phage-459] | 2.38 | 0.07 | 
22 | YCEGHAPEYIAKCL (cysteine pairing not given here; also: biotinylated, site not given here) [Peptide-121] |  |  | Kd [5]: 831 nM; koff [5]: 0.028 s⁻¹; kon [5]: 33700 M⁻¹ s⁻¹; t1/2 [5]: 24 s
23 | ECHWSMWAVGHACF (cysteine pairing not given here; also: displayed on phage, fused to pIII, Clonal phage supernatant; not shown: bacteriophage pIII to which the peptide is fused for display) [Phage-462] | 1.77 | 0.07 | 
24 | WCWDYREWVPMTCP (cysteine pairing not given here; also: displayed on phage, fused to pIII, Clonal phage supernatant; not shown: bacteriophage pIII to which the peptide is fused for display) [Phage-461] | 2.3 | 0.08 | 
25 | WCWYYREWVPMTCP (cysteine pairing not given here; also: displayed on phage, fused to pIII, Clonal phage supernatant; not shown: bacteriophage pIII to which the peptide is fused for display) [Phage-467] | 1.85 | 0.07 | 
26 | MDWCPKDLWDYCFA (cysteine pairing not given here; also: displayed on phage as fusion to pIII, linker not given here) [Phage-97] |  |  | CD28 scFv signal [3]: 2.57; CD28 scFv signal in presence of CD28 [4]: 0.165
